Test results: publication PMC3358306

Substrate: Nc1ncnc2c1ncn2[C@@H]1O[C@H](COP(=O)(O)OP(=O)(O)OP(=O)(O)O)[C@@H](O)[C@H]1O
Test: purified protein
Assay type: biochemical, Archaeoglobus fulgidus
Details: Mg2+ ATP binding pocket

B1: afRio1 (Rio1 kinase) (Archaeoglobus fulgidus DSM 4304) (protein)
chain: MKDLKKIESYLDKLRIKEKDGEERKIYAEVLDGRTLKTLYKLSAKGYITAMGGVISTGKEANVFYADGVFDGKPVAMAVKIYRIETSEFDKMDEYLYGDERFDMRRISPKEKVFIWTEKEFRNLERAKEAGVSVPQPYTYMKNVLLMEFIGEDELPAPTLVELGRELKELDVEGIFNDVVENVKRLYQEAELVHADLSEYNIMYIDKVYFIDMGQAVTLRHPMAESYLERDVRNIIRFFSKYGVKADFEEMLKEVKGE
notes: full-length
- Km: 0.4 µM
- Vmax: 0.000156 µmol/min
